Data published in patent US20170368150A1, “METHODS OF TREATING PULMONARY SARCOIDOSIS” (GOTHAM BIOPHARMACEUTICALS, INC., priority 2014, published 2017).

Legend:
[1] = system: patient with chronic pulmonary sarcoidosis; test: n=1 long-term clinical treatment of a chronic pulmonary sarcoidosis patient with PULMOZYME; type: in vivo
Source text: At times, the patient was bedridden, dyspneic, and could not climb stairs or walk more than 10 feet. Steroids had been prescribed by pulmonary specialists; however the side effects of steroid therapy (diabetes, weight gain, memory loss, mental confusion, crippling joint pain) were intolerable. The patient's pulmonary sarcoidosis was deemed ultimately refractory to steroid therapy, which was discontinued, leaving essentially no therapeutic options for this patient.
PULMOZYME® was prescribed to the patient by a licensed medical practitioner to initiate treatment.
The extended clinical timeline described above allowed for a distinction between remission and stabilization of the disease to be made. […] This was done on an annual basis for the patient described above for the typical “survival window” (8-14 years for patients with progressive, chronic disease).
The clinical timeline for treatment of the patient described above with PULMOZYME® is represented diagrammatically in FIG. 3 during pretreatment and for the entire treatment interval.

bronchiectasis patients = details: large clinical trial; cited from earlier work
[2] = more than 10 years of treatment

B1: dornase alfa (protein, listed as Homo sapiens)
chain: LKIAAFNIQTFGETKMSNATLVSYIVQILSRYDIALVQEVRDSHLTAVGKLLDNLNQDAPDTYHYVVSEPLGRNSYKERYLFVYRPDQVSAVDSYYYDDGCEPCGNDTFNREPAIVRFFSRFTEVREFAIVPLHAAPGDAVAEIDALYDVYLDVQEKWGLEDVMLMGDFNAGCSYVRPSQWSSIRLWTSPTFQWLIPDSADTTATPTHCAYDRIVVAGMLLRGAVVPDSALPFNFQAAYGLSDQLAQAISDHYPVEVMLK
pulmonary disease symptoms (dyspnea, inspissated secretions) on discontinuation of therapy ([1]; annual 2-week discontinuation, resolved upon resumption (2.5 mg qd 4x weekly)): worsened | arterial O2 saturation (finger pulse oximetry) ([1]; at present, on room air): 98% | Arterial oxygenation via pulse oximetry, SaO2 ([1]; currently measured on room air, low of 70% in pre-treatment interval): 99% | Chest physical therapy with postural drainage ([1]; during PULMOZYME therapy): none required | General quality of life ([1]; during PULMOZYME therapy): vastly improved | Rib fractures and abdominal hernias ([1]; during PULMOZYME therapy): none | Granuloma formation/expectoration ([1]; during treatment): occasional | sarcoid skin involvement ([1]; during treatment): unchanged | Remission of disease ([1]; judged by annual 14-day discontinuation): not evident | Emergency room visits and hospitalizations relating to pulmonary sarcoidosis [1, 2]: none | Pulmonary exacerbations (pneumonia) [1, 2]: not been a single pulmonary exacerbation and none | routine chest x-rays during treatment ([1]; scarring not progressed to more severe disease): improvement | Blood chemistry, liver and kidney function during treatment ([1]; single patient): normal | Exercise tolerance during treatment ([1]; single patient): unlimited | Coughing, wheezing, dyspnea ([1]; single patient, continued therapy 3-4 days/week): none | Adverse events / side effects relating to PULMOZYME ([1]; single patient, long-term treatment (more than 10 years; over 12 years)): complete absence of side effects and without side effects or incident and none | benefit of treatment in bronchiectasis (bronchiectasis patients): failed to demonstrate any benefit | safety of treatment in bronchiectasis (bronchiectasis patients): potentially harmful
